Results reported in IntAct's records for PubMed 29039417.

B1: Protein PTHB1 (Homo sapiens), Q3SYG4 (parent)
chain: MSLFKARDWWSTILGDKEEFDQGCLCLANVDNSGNGQDKIIVGSFMGYLRIFSPHPAKTGDGAQAEDLLLEVDLRDPVLQVEVGKFVSGTEMLHLAVLHSRKLCVYSVSGTLGNVEHGNQCQMKLMYEHNLQRTACNMTYGSFGGVKGRDLICIQSMDGMLMVFEQESYAFGRFLPGFLLPGPLAYSSRTDSFLTVSSCQQVESYKYQVLAFATDADKRQETEQQKLGSGKRLVVDWTLNIGEQALDICIVSFNQSASSVFVLGERNFFCLKDNGQIRFMKKLDWSPSCFLPYCSVSEGTINTLIGNHNNMLHIYQDVTLKWATQLPHIPVAVRVGCLHDLKGVIVTLSDDGHLQCSYLGTDPSLFQAPNVQSRELNYDELDVEMKELQKIIKDVNKSQGVWPMTEREDDLNVSVVVSPNFDSVSQATDVEVGTDLVPSVTVKVTLQNRVILQKAKLSVYVQPPLELTCDQFTFEFMTPDLTRTVSFSVYLKRSYTPSELEGNAVVSYSRPTDRNPDGIPRVIQCKFRLPLKLICLPGQPSKTASHKITIDTNKSPVSLLSLFPGFASQSDDDQVNVMGFHFLGGARITVLASKTSQRYRIQSEQFEDLWLITNELILRLQEYFEKQGVKDFACSFSGSIPLQEYFELIDHHFELRINGEKLEELLSERAVQFRAIQRRLLARFKDKTPAPLQHLDTLLDGTYKQVIALADAVEENQGNLFQSFTRLKSATHLVILLIALWQKLSADQVAILEAAFLPLQEDTQELGWEETVDAAISHLLKTCLSKSSKEQALNLNSQLNIPKDTSQLKKHITLLCDRLSKGGRLCLSTDAAAPQTMVMPGGCTTIPESDLEERSVEQDSTELFTNHRHLTAETPRPEVSPLQGVSE
partner: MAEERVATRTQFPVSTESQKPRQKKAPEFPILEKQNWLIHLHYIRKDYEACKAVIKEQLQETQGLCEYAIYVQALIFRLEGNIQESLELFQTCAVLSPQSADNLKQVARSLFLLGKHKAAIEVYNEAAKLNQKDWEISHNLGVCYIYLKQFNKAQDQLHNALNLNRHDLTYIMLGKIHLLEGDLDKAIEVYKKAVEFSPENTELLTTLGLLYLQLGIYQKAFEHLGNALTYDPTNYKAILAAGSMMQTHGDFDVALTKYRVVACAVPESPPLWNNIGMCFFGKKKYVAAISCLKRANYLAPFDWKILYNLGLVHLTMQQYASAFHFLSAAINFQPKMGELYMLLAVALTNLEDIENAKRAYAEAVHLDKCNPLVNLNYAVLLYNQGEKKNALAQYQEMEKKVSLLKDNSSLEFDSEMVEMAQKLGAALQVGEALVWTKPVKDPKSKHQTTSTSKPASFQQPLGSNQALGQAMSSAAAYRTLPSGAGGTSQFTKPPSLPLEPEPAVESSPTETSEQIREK

Variants of: B1
Details: with bbs4_human BBS4, Q96RK4
With V629A the “effect of a mutation on the interaction” value was “with no effect”.
For D804A, the “effect of a mutation on the interaction” value was “with no effect”.
D804E was tested, and the “effect of a mutation on the interaction” value was “with no effect”.
In the case of S414E, the “effect of a mutation on the interaction” value is reported as “with no effect”.
In the case of S745E, the “effect of a mutation on the interaction” value is reported as “disrupting interaction strength”.
T865E was tested, and the “effect of a mutation on the interaction” value was “with no effect”.
In the case of R510A, the “effect of a mutation on the interaction” value is reported as “with no effect”.
For I738E, the “effect of a mutation on the interaction” value was “disrupting interaction strength”.
With E715K the “effect of a mutation on the interaction” value was “disrupting interaction strength”.
With Y703E the “effect of a mutation on the interaction” value was “with no effect”.
For P537K, the “effect of a mutation on the interaction” value was “with no effect”.
For T782E, the “effect of a mutation on the interaction” value was “with no effect”.
F527E was tested, and the “effect of a mutation on the interaction” value was “with no effect”.
D608A was tested, and the “effect of a mutation on the interaction” value was “with no effect”.
With D608E the “effect of a mutation on the interaction” value was “with no effect”.
D686E was tested, and the “effect of a mutation on the interaction” value was “with no effect”.
L531K was tested, and the “effect of a mutation on the interaction” value was “with no effect”.
In the case of S855K, the “effect of a mutation on the interaction” value is reported as “with no effect”.
For V430A, the “effect of a mutation on the interaction” value was “with no effect”.
D513E was tested, and the “effect of a mutation on the interaction” value was “with no effect”.
For L698S, the “effect of a mutation on the interaction” value was “disrupting interaction strength”.
L793A was tested, and the “effect of a mutation on the interaction” value was “with no effect”.
For L793E, the “effect of a mutation on the interaction” value was “with no effect”.
G822A was tested, and the “effect of a mutation on the interaction” value was “with no effect”.
With I640A the “effect of a mutation on the interaction” value was “with no effect”.
Q597R was tested, and the “effect of a mutation on the interaction” value was “disrupting interaction strength”.
With V424A the “effect of a mutation on the interaction” value was “with no effect”.
Q602K was tested, and the “effect of a mutation on the interaction” value was “with no effect”.
With F684E the “effect of a mutation on the interaction” value was “with no effect”.
With F684A the “effect of a mutation on the interaction” value was “with no effect”.
With G628A the “effect of a mutation on the interaction” value was “with no effect”.
For Q621E, the “effect of a mutation on the interaction” value was “with no effect”.
C525E was tested, and the “effect of a mutation on the interaction” value was “with no effect”.
In the case of I612K, the “effect of a mutation on the interaction” value is reported as “with no effect”.
For L616P, the “effect of a mutation on the interaction” value was “disrupting interaction strength”.
For Q742A, the “effect of a mutation on the interaction” value was “with no effect”.
With Q717E the “effect of a mutation on the interaction” value was “with no effect”.
In the case of L727P, the “effect of a mutation on the interaction” value is reported as “disrupting interaction strength”.
For T731E, the “effect of a mutation on the interaction” value was “disrupting interaction strength”.
In the case of S561A, the “effect of a mutation on the interaction” value is reported as “with no effect”.
With S596A the “effect of a mutation on the interaction” value was “with no effect”.
With L591A the “effect of a mutation on the interaction” value was “with no effect”.
For R824A, the “effect of a mutation on the interaction” value was “with no effect”.
With K443E the “effect of a mutation on the interaction” value was “with no effect”.
For I649E, the “effect of a mutation on the interaction” value was “with no effect”.
In the case of V417A, the “effect of a mutation on the interaction” value is reported as “with no effect”.
L618E was tested, and the “effect of a mutation on the interaction” value was “with no effect”.
With E654A the “effect of a mutation on the interaction” value was “disrupting interaction strength”.
T441E was tested, and the “effect of a mutation on the interaction” value was “with no effect”.
For T441K, the “effect of a mutation on the interaction” value was “with no effect”.
With N658K the “effect of a mutation on the interaction” value was “with no effect”.
P516A was tested, and the “effect of a mutation on the interaction” value was “with no effect”.
P516E was tested, and the “effect of a mutation on the interaction” value was “with no effect”.
S635A was tested, and the “effect of a mutation on the interaction” value was “with no effect”.
With H546A the “effect of a mutation on the interaction” value was “with no effect”.
H546E was tested, and the “effect of a mutation on the interaction” value was “with no effect”.
With V838A the “effect of a mutation on the interaction” value was “disrupting interaction strength”.
H869A was tested, and the “effect of a mutation on the interaction” value was “with no effect”.
With L825A the “effect of a mutation on the interaction” value was “with no effect”.
In the case of L825K, the “effect of a mutation on the interaction” value is reported as “with no effect”.
In the case of D429E, the “effect of a mutation on the interaction” value is reported as “with no effect”.
For Q453A, the “effect of a mutation on the interaction” value was “with no effect”.
For H694A, the “effect of a mutation on the interaction” value was “with no effect”.
In the case of P689E, the “effect of a mutation on the interaction” value is reported as “with no effect”.
In the case of N794K, the “effect of a mutation on the interaction” value is reported as “with no effect”.
With G823E the “effect of a mutation on the interaction” value was “with no effect”.
A872K was tested, and the “effect of a mutation on the interaction” value was “with no effect”.
With P511A the “effect of a mutation on the interaction” value was “with no effect”.
R528K was tested, and the “effect of a mutation on the interaction” value was “with no effect”.
In the case of F563A, the “effect of a mutation on the interaction” value is reported as “with no effect”.
In the case of Q627K, the “effect of a mutation on the interaction” value is reported as “with no effect”.
For M839A, the “effect of a mutation on the interaction” value was “disrupting interaction strength”.
In the case of M839E, the “effect of a mutation on the interaction” value is reported as “disrupting interaction strength”.
For Q574R, the “effect of a mutation on the interaction” value was “disrupting interaction strength”.
For Q835E, the “effect of a mutation on the interaction” value was “with no effect”.
I451A was tested, and the “effect of a mutation on the interaction” value was “with no effect”.
In the case of L681E, the “effect of a mutation on the interaction” value is reported as “with no effect”.
For Q462E, the “effect of a mutation on the interaction” value was “with no effect”.
In the case of S545K, the “effect of a mutation on the interaction” value is reported as “with no effect”.
In the case of W768K, the “effect of a mutation on the interaction” value is reported as “with no effect”.
R514E was tested, and the “effect of a mutation on the interaction” value was “with no effect”.
In the case of R514K, the “effect of a mutation on the interaction” value is reported as “with no effect”.
In the case of T813K, the “effect of a mutation on the interaction” value is reported as “with no effect”.
For L662E, the “effect of a mutation on the interaction” value was “with no effect”.
For L662K, the “effect of a mutation on the interaction” value was “with no effect”.
L662A was tested, and the “effect of a mutation on the interaction” value was “with no effect”.
For T829E, the “effect of a mutation on the interaction” value was “with no effect”.
